In patent CN114106166A (VIRUS DISEASE PREVENTION AND CONTROL PLACE OF CHINESE …, dated 2022):

Tests used:
新型冠状病毒Omicron变体RBD蛋白 = biological target: T1, 新型冠状病毒Omicron变体RBD蛋白 (SARS-CoV-2 Omicron variant, UniProt P0DTC2 319-541); assay: SPR, BIAcore 8000, RBD protein coupled to the chip, 1:1 binding fit
T1 construct: domain: RBD

新型冠状病毒Delta变体RBD蛋白 = biological target: T2, 新型冠状病毒Delta变体RBD蛋白 (SARS-CoV-2 Delta variant, UniProt P0DTC2 319-541); assay: as above
T2 construct: domain: RBD; also called 新冠Delta变体RBD蛋白

B1: 人源抗新冠病毒中和性抗体D2 (全抗体IgG) (antibody, V domains shown)
VH: EVQLVESGGGLVQPGRSLTLSCGASGFTFEDYAMHWVRQAPGKGLEWVSGIDWNSGVIGYADSVKGRFIISRDNAKNSLYLHMRSLTAEDTALYYCAKDVYSESGSGSYYDYWGQGTLVTVSS
VL: QSVLTQPPSVSAAPGQKVAISCSGSTSNIGDNFVSWYQQFPGTAPKLLLYDDARRPSGIPDRFSGSKSGTSATLGITGLQTGDEAVYFCSTWDNSLNVVLFGGGTKLTVL
notes: also called D2号抗体; 纯化D2抗体
**Q.** B1 was tested. Which Kd (新型冠状病毒Omicron变体RBD蛋白) did it give?
**A.** The Kd was 0.011 nM.

**Q.** And the Kd (新型冠状病毒Delta变体RBD蛋白)?
**A.** Its Kd is 0.0621 nM.
